Values belong to the binder of their own block, whether it stands above or below them.
Key:
human CCR8 [1] = target: T1, human CCR8 (human, UniProt P51685 1-355); experiment: cell-based or functional assay
pm8 = target: T2, pm8 (Y15, Y16 and Y17 sulfated); experiment: ELISA on coated peptide [cont.]
T2 construct: also called sulfated CCR8 N-terminal peptide pm8
In short: (§1)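 Steps: peptide coating (500 ng/ml, carbonate/bicarbonate); anti-CCR8 mAb added at 1 μg/mL and diluted 1/10; room-temperature incubation of 90 min; washes to remove unbound antibody; 15 min TMB; OD measurement.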

pm3 = target: T3, pm3 (Y17 sulfated; Y15 and Y16 not sulfated); experiment: ELISA on coated peptide [cont.]
T3 construct: also called sulfated CCR8 N-terminal peptide pm3
In short: as §1

pm6 = target: T4, pm6 (Y16 and Y17 sulfated; Y15 not sulfated); experiment: ELISA on coated peptide [cont.]
T4 construct: also called sulfated CCR8 N-terminal peptide pm6
In short: as §1

pm4 = target: T5, pm4 (sulfated tyrosine(s) among Y15, Y16, Y17; which ones is not told (the underlining of Table 1 is lost in the text)); experiment: ELISA on coated peptide [cont.]
T5 construct: also called sulfated CCR8 N-terminal peptide pm4
In short: as §1

pm5 = target: T6, pm5 (Y15 and Y17 sulfated; Y16 not sulfated); experiment: ELISA on coated peptide [cont.]
T6 construct: also called sulfated CCR8 N-terminal peptide pm5
In short: as §1

pm1 = target: T7, pm1 (sulfated tyrosine(s) among Y15, Y16, Y17; which ones is not told (the underlining of Table 1 is lost in the text)); experiment: ELISA on coated peptide [cont.]
T7 construct: also called sulfated CCR8 N-terminal peptide pm1
In short: as §1

[2] = target: T8, human CCR8 with a SNAP-tag at the N-terminus (human, UniProt P51685 1-355, SNAP-tag labelled covalently with Lumi4-Terbium); experiment: HTRF Tag-lite, inhibition of hCCL1-AF647 binding to SNAP-hCCR8 on HEK-293 cells
T8 construct: also called hCCR8 SNAP-tag; CCR8 SNAP-tag
Protocol: The inhibition of CCL1 binding to hCCR8 was evaluated with the Tag-Lite® technology from Cisbio (Revvity). Human CCR8 is engineered with a SNAP-tag at the N-terminus of the GPCR. hCCR8 SNAP-tag is transiently transfected on HEK-293 cell line using FuGene® (Promega, Madison, WI, USA). 48 hours after transfection, cells are labeled with the substrate Lumi4-Terbium® (Cisbio, Codolet, France) which covalently reacts with the SNAP-tag, for 1 h at 37° C. Thawed or freshly labeled cells are plated in a 384 low volume white plate (GREINER Bio-One, Courtaboeuf, France) (10000 cells/well/10 μl). […] The Kd was previously obtained in a saturation binding assay on the same cells. […] The plate is next incubated at 21° C. for 2 h. Detection of HTRF signal is performed on the multiplate reader EnVision (PerkinElmer, Waltham, MA, USA). The HTRF (665/620) ratio is calculated by EnVision software, the data exported are considered as the total binding. The specific binding is calculated then by subtracting the non-specific signal from the total binding. The Ki and IC₅₀ are calculated using the “One site-Fit Ki” and “One site-FitlogIC50” from GraphPad Prism 9 (Graphpad Software, San Diego, CA, USA), respectively.

[3] = target: T8, human CCR8 with a SNAP-tag at the …; experiment: cell-based or functional assay
human CCR8 [4] = target: T1, human CCR8; experiment: flow cytometry, hCCR8-transfected CHO-K1 cells
Protocol: The same staining protocol was applied on human CCR8 transfected CHO cell line versus wild type CHO cell line, cutaneous T cell lymphoma HUT78 cell line and human activated T cell model.
Briefly, 1.10⁵ cells per well in a 96 well plate were incubated with a dilution of unconjugated anti-CCR8 mAb at 10 μg/mL then diluted at 1/3.33, 4 dilution points (during 30 min at 4° C.). […] Subsequently, cells are centrifuged (5 min at 400 g) and bound antibody is detected with F(ab′)2-Goat anti-Mouse IgG (H+L) Cross-Adsorbed Secondary Antibody, Alexa Fluor 488 (dilution 1/500) (Invitrogen by Thermofisher Scientific, Illkirch-Graffenstaden, France) or with F(ab′)₂-Goat anti-Human IgG Fc Secondary Antibody, PE (Invitrogen by Thermofisher Scientific, Illkirch-Graffenstaden, France) (dilution 1/1000) at 4° C. for 30 min. […] Bound detection antibody is quantified on a MacsQuant16 (Miltenyi, Gladbach, Germany) (B1 or B2 channel, 5000 events per acquisition). […] EC50 values were determined via nonlinear fit “log (agonist) vs.response—Variable slope (four parameters)” function of Graphpad prism. EC50 values were not constantly determined in the same experiments.

human CCR8 [5] = target: T1, human CCR8; experiment: cell-based or functional assay; remark: listed apart in the source

T7 sequence (peptide, as listed by the source): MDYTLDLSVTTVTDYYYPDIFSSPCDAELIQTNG
T2 sequence (peptide, as listed by the source): as above
T3 sequence (peptide, as listed by the source): as above
T6 sequence (peptide, as listed by the source): as above
T5 sequence (peptide, as listed by the source): as above
T4 sequence (peptide, as listed by the source): as above

IC50 (read off the curve), inhibition of hCCL1 induced Gi2 signaling, No Wash-out (human CCR8 [1]): ~0.02 µg/mL | IC50 (read off the curve), inhibition of hCCL1 induced Gi2 signaling, Wash-out (6 h) (human CCR8 [1]): ~0.06 µg/mL | binding result (pm8): binds | binding result (pm3): binds | binding result (pm6): binds | binding result (pm4): binds | binding result (pm5): binds | binding result (pm1): binds
B1: anti-CCR8 mAb 1-20 (antibody, human IgG1, kappa)
heavy: not shown
light: DIVMTQAAPSLSVTPGESASISCTSSKSLLHSNGNTYLYWFLQKPGQSPQLLIYRMSNLASGVPDRFSGSGSGTAFTLKISRVEAEDVGVYYCMQHREYPFTFGSGTKLEIKRTVAAPSVFIFPPSDEQLKSGTASVVCLLNNFYPREAKVQWKVDNALQSGNSQESVTEQDSKDSTYSLSSTLTLSKADYEKHKVYACEVTHQGLSSPVTKSFNRGEC
notes: Humanized mAb, human IgG1 / kappa

IC50 [2]: 0.1 to 1 nM | % hCCR8 internalization with CCL1 300 nM, mAb 1 µg/ml (HTRF) [3]: 139% | % hCCR8 internalization with CCL1 300 nM, mAb 10 µg/ml (HTRF) [3]: 52% | binding result (pm8): binds | binding result (pm3): binds | binding result (pm6): binds | binding result (pm4): binds | binding result (pm5): binds | binding result (pm1): binds
B2: anti-CCR8 mAb 1-22 (antibody, human IgG1, kappa, V domains shown)
VH: EVQLLESGGGLVQPGGSLRLSCAASGFTFNAYAMNWVRQAPGKGLEWVARIRSKSNDYATYYGDSVKGRFTISRDNSKNTLYLQMNSLRAEDTAVYYCVRGREAYYRYDGGYYAMDVWGQGTTVTVSS
VL: DIVMTQSPLSLPVTPGEPASISCRSSKSLLHSNGNTYLYWFLQKPGQSPQLLIYRVSNLASGVPDRFSGSGSGTDFTLKISRVEAEDVGVYYCMQHREYPFTFGQGTKLEIKR
notes: as for B1

EC50 (human CCR8 [4]): 0.1 nM | ADCC % max lysis, HUT78 targets, NK donor 3 (human CCR8 [5]): 16% | ADCC % max lysis, HUT78 targets, NK donor 4 (human CCR8 [5]): 19% | ADCC EC50, HUT78 targets, NK donor 3 (human CCR8 [5]): 0.349 nM | ADCC EC50, HUT78 targets, NK donor 4 (human CCR8 [5]): 1.91 nM
B3: anti-CCR8 mAb 1-25 (antibody, human IgG1, kappa, V domains shown)
VH: QVQLVESGGGVVQPGRSLRLSCAASGFTFSNYRMHWVRQAPGKGLEWIAVIKVKSDNYGANYADSVKGRFTISRDNSKNTLYLQMNSLRAEDTAVYYCSSPTYPGSSGFAYWGQGTLVTVSS
VL: DIQMTQSPSSLSASVGDRVTITCRASQDISNYLNWYQQKPDGTVKLLIYYTSRLHTGVPSRFSGSGSGTDYTLTISNLQQEDIATYFCQQGNKFPPTFGGGTKVEINR
notes: as for B1
